Data as given in patent publication US20190202901A1.

How the values were obtained:
[1] = target: recombinant human IGF-1R protein (R&D Systems, Cat 391-GR) (human) (UniProt P08069); test: direct ELISA on rhIGF-1R coating, dose response
[2] = target: recombinant human IGF-1R protein (R&D Systems, Cat 391-GR) (human) (UniProt P08069); test: direct ELISA, rhIGF-1R coating, antibody at 5 µg/ml
[3] = target: recombinant murine IGF-1R protein (R&D Systems, Cat 6630-GR/Fc) (murine) (UniProt Q60751); test: direct ELISA, rmIGF-1R coating, antibody at 5 µg/ml
[4] = target: recombinant human IGF-1R protein (R&D Systems, Cat 391-GR) (human) (UniProt P08069); test: direct ELISA, rhIGF-1R coated, goat anti-mouse IgG-HRP, TMB, OD 450 nm; Prism sigmoidal dose-response (variable slope) fit

| EC50 [1] [nM] | OD [2] [OD 450 nm] | OD [3] [OD 450 nm] | BOTTOM (best-fit value) [4] | EC50 [4] [nM] | LOGEC50 [4] | TOP (best-fit value) [4] | Binder |
| --- | --- | --- | --- | --- | --- | --- | --- |
| 0.41 | 2.62 | 0.065 | 0.116 OD (450 nm) | 0.417 | -9.38 log C [M] | 2.44 OD (450 nm) | 816C12 (antibody, V domains shown) VH: EVQLQQSGPELVKPGASVKMSCKASGHTFTSYVLHWMKRKPGQGLEWIGYINPHNDVTKYNENFKGKATLTSDKYSSTVYMEVSSLTSEDSAVYYCVSTAYYGNGRYFDVWGAGTTVTVSS VL: DIQMTQTTSSLSASLGDRVTISCRASQDINNYLNWYQQKPDGTVKLLIYYTSRLHSGVSSRFSGSGSGTDYSLTISNLEQEDIATYFCQQGNTLPWTFGGGTKLEIK |
| 0.51 | 2.14 | 1.29 | 0.0807 OD (450 nm) | 0.513 | -9.29 log C [M] | 2.64 OD (450 nm) | 810D12 (antibody, V domains shown) VH: EVQLQQSGPELVKPGASVKMSCKASGHTFTSYMLHWVKQKPGQGLEWLGFINPYNDVTKYNENFKGKATLTSDKSSSTAYMELNSLTSEDSAVYFCVTTAYYGNGRYFDVWGAGTTVTVSS VL: DIQMTQTTSSLSASLGDRVTISCRASQDITNYLTWYQQKPDGTVKVLIYYTSRLYSGVPSRFSGSGSGSDYSLTINNLEQEDIATYFCQQGYSLPWTFGGGTKLEIK |
